Reference: publication PMC9181698 (International Journal of Molecular Sciences, 2022)

Biological target: T1, SARS-CoV-2 spike protein RBD-Fc fusion protein, wild type (SARS-CoV-2, UniProt P0DTC2)
T1 construct: source: bought: Sino Biological
Assay: ELISA
Settings: both partners purified

Binder	IC50 [nM]
DKEWILQKIYEIMRLLDEL (HELM PEPTIDE1{[O=C1N[C@H]2[C@H](CS[C@H]2CCCCC(=O)[*:2])N1].[O=C(COCCOCCN[*:1])[*:2]].D.K.E.W.I.L.Q.K.I.Y.E.I.M.R.L.L.D.E.L.[am]}$$$$V2.0; SMILES CC[C@H](C)[C@H](NC(=O)[C@H](Cc1c[nH]c2ccccc12)NC(=O)[C@H](CCC(=O)O)NC(=O)[C@H](CCCCN)NC(=O)[C@H](CC(=O)O)NC(=O)COCCOCCNC(=O)CCCC[C@@H]1SC[C@@H]2NC(=O)N[C@@H]21)C(=O)N[C@@H](CC(C)C)C(=O)N[C@@H](CCC(N)=O)C(=O)N[C@@H](CCCCN)C(=O)N[C@H](C(=O)N[C@@H](Cc1ccc(O)cc1)C(=O)N[C@@H](CCC(=O)O)C(=O)N[C@H](C(=O)N[C@@H](CCSC)C(=O)N[C@@H](CCCNC(=N)N)C(=O)N[C@@H](CC(C)C)C(=O)N[C@@H](CC(C)C)C(=O)N[C@@H](CC(=O)O)C(=O)N[C@@H](CCC(=O)O)C(=O)N[C@@H](CC(C)C)C(N)=O)[C@@H](C)CC)[C@@H](C)CC, source: synthetic peptide (Fmoc/tBu solid-phase synthesis, preparative HPLC)) [LW25.5, individual helix 1 of LCB1]	> 200
GHAEASMRVSDLIYEFMKKG (HELM PEPTIDE1{[O=C1N[C@H]2[C@H](CS[C@H]2CCCCC(=O)[*:2])N1].[O=C(COCCOCCN[*:1])[*:2]].G.H.A.E.A.S.M.R.V.S.D.L.I.Y.E.F.M.K.K.G.[am]}$$$$V2.0; SMILES CC[C@H](C)[C@H](NC(=O)[C@H](CC(C)C)NC(=O)[C@H](CC(=O)O)NC(=O)[C@H](CO)NC(=O)[C@@H](NC(=O)[C@H](CCCNC(=N)N)NC(=O)[C@H](CCSC)NC(=O)[C@H](CO)NC(=O)[C@H](C)NC(=O)[C@H](CCC(=O)O)NC(=O)[C@H](C)NC(=O)[C@H](Cc1c[nH]cn1)NC(=O)CNC(=O)COCCOCCNC(=O)CCCC[C@@H]1SC[C@@H]2NC(=O)N[C@@H]21)C(C)C)C(=O)N[C@@H](Cc1ccc(O)cc1)C(=O)N[C@@H](CCC(=O)O)C(=O)N[C@@H](Cc1ccccc1)C(=O)N[C@@H](CCSC)C(=O)N[C@@H](CCCCN)C(=O)N[C@@H](CCCCN)C(=O)NCC(N)=O, source: synthetic peptide (Fmoc/tBu solid-phase synthesis, preparative HPLC)) [LW25.6, individual helix 2 of LCB1]	> 200
